Assay results from publication PMC5085234, “Monomeric gremlin is a novel vascular endothelial growth factor receptor-2 antagonist” (Oncotarget, 2016).

B2: his-tagged wild-type gremlin (gremlin^WT), rat (natural protein, UniProt O35793 25-184, looked up)
chain: KKKGSQGAIPPPDKAQHNDSEQTQSPPQPGSRTRGRGQGRGTAMPGEEVLESSQEALHVTERKYLKRDWCKTQPLKQTIHEEGCNSRTIINRFCYGQCNSFYIPRHIRKEEGSFQSCSFCKPKKFTTMMVTLNCPELQPPTKKKRVTRVKQCRCISIDLD
notes: secreted into the medium; covalent homodimer through Cys141; The IMAC-purified preparation holds monomer and dimer (used for non-reducing SDS-PAGE and SEC); the heparin 1.2 M NaCl fraction holds only the disulfide-linked dimer (98.5% purity) and is the form used in ELISA, SPR and cell assays; N-glycosylated and non-glycosylated forms are present; also called gremlin^WT dimer; dimeric gremlin^WT; …

Key:
[1] = biological target: extracellular domain D1-7 of human VEGFR2 (ECD-VEGFR2) (human); assay: SPR; BIAcore X; ECD-VEGFR2 immobilized on CM5 sensorchip (0.036-0.064 pmol/mm^2); gremlin 100 ng/mL to 4 ug/mL injected in HBS-EP; equilibrium responses fitted to the Langmuir equation for monovalent binding
[2] = biological target: the molecule itself; assay: non-reducing SDS-PAGE with Western blot; recombinant his-tagged gremlin purified by IMAC (and heparin-affinity chromatography), SDS-PAGE without beta-mercaptoethanol, anti-gremlin WB, silver staining
[3] = biological target: B2; assay: ELISA; 96-well plates coated with 250 ng/mL of human BMP4, increasing concentrations of gremlin, bound gremlin detected with anti-gremlin antibody; conditions: both partners purified
[4] = biological target: T1, his-tagged gremlin^C141A mutant, rat (rat, UniProt O35793 25-184, C141A); assay: as above; conditions: both partners purified
T1 construct: secreted into the medium; monomer; also called gremlin^C141A monomer; monomeric gremlin^C141A; not shown: His tag, C-terminal, kept
T1 sequence (looked up): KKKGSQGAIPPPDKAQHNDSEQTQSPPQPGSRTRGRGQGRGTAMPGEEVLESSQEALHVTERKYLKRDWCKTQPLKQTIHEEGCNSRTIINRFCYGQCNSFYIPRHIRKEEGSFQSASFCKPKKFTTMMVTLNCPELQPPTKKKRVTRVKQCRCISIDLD

[5] = biological target: the molecule itself; assay: non-reducing SDS-PAGE with Western blot; conditioned medium of FGF2-T-MAE cells (treated with increasing H2O2 for 1 hour, then 4 hours fresh medium) immunoprecipitated with anti-gremlin antibody, WB under non-reducing conditions

B1: his-tagged gremlin^C141A mutant, rat (natural protein)
chain: KKKGSQGAIPPPDKAQHNDSEQTQSPPQPGSRTRGRGQGRGTAMPGEEVLESSQEALHVTERKYLKRDWCKTQPLKQTIHEEGCNSRTIINRFCYGQCNSFYIPRHIRKEEGSFQSASFCKPKKFTTMMVTLNCPELQPPTKKKRVTRVKQCRCISIDLD
B1 was tested, and the Kd [1] was 73 nM.

With B2 the “stoichiometry N” value [2] was 2 and the Kd [1] was 73 nM.

B3: human BMP4 (ligand, UniProt P12644 293-408, looked up)
chain: SPKHHSQRARKKNKNCRRHSLYVDFSDVGWNDWIVAPPGYQAFYCHGDCPFPLADHLNSTNHAIVQTLVNSVNSSIPKACCVPTELSAISMLYLDEYDKVVLKNYQEMVVEGCGCR
notes: bone morphogenetic protein 4, human; the ELISA paragraph says only human BMP4; also called immobilized BMP4; source: bought: R&D
B3: binds [3]; binds [4].

B4: endogenous murine gremlin (natural protein, UniProt O70326 25-184, looked up)
chain: KKKGSQGAIPPPDKAQHNDSEQTQSPPQPGSRTRGRGQGRGTAMPGEEVLESSQEALHVTERKYLKRDWCKTQPLKQTIHEEGCNSRTIINRFCYGQCNSFYIPRHIRKEEGSFQSCSFCKPKKFTTMMVTLNCPELQPPTKKKRVTRVKQCRCISIDLD
notes: gremlin, mouse, endogenous; immunoprecipitated with anti-gremlin antibody; Seen as 20-24 kDa monomers and 40-44 kDa dimers under non-reducing conditions; source: endogenous, lysates of healthy C57BL/6 murine organs; endogenous, conditioned medium of FGF2-T-MAE cells
In the case of B4, the “stoichiometry N” value [5] is reported as 2.
